Test results: the DeepSol protein solubility set

Test: soluble on expression in E. coli; label from the status in PepcDB or PDB records

With “MGSDKIHHHHHHMAATSNQIKSKVWDNKQEYHLTIESLRMLLENRIPLIRLKEFATPQECEILVAQAELFNFDCYQNVNPKIERIGITVFEYNRISKAAYFQAVERTTKLRDCIMAASFNPLERLMVKIQECTGATVRIASEPLYGSYYAGLIRKIEQGTQLHIDYAPLEQSKWEIGTVIYQLSWNLYLKFSPNNHGQTRIYDRQWQPGDEQYKLDSYGYGDTVIADADTIAFQPYVGDVFIFNTRNYHTVEPMDGQRVTFTSAIGLLPNGEIILWS” as the sequence, how does the “soluble on expression in E. coli” value read?
Its value is “not soluble”.

Which “soluble on expression in E. coli” value does the source give for “VIDSMTSTDLLPEEPKWVPLSSESIQQYVDEGKVVFVDVTADWCVTCKANKIGVLLQEPVYSELNSANVVPMQGDWTVPSEKITSYLQEHGRFGVPFNVVYGPSAPNGIELPVILNEKVVMDAIKKAGNK” here?
Its value is “soluble”.

With “MEVHDKIRTLREVNQWTQEEMAEKLEMSVNGYSKIERGKSGINLDKLRQIAQIFNIDVVELLAEQNRSFFFSIGDNTNNHHNIIGSDEMLVFENEKLRSLLDAKDELIRQKDSEIAVLKKLVILLEEKK” as the sequence, how does the “soluble on expression in E. coli” value read?
The value was “not soluble”.

With “MSLYQAIVFFDLDSTLFDDNKHVLPASVAAIHEMQQHHILPVIATGRNIFEIQYVLDGTGIDSVVGANGSYVQYQGQRLAAAVIAPELLTAVTSFAQRQHDPIAYYTSQGFRLSQANADTTENFQLLRLHPIVDPAWYATHQINFLNVFNRDHDQLYQEKFSGQLTFVRNNPRCLDTMVNGVTKQSGIRTLIQQAGLQGIKTYAFGDGYNDLQMFDEVDVPISMGNGVAAAKEKAAYVTTTNTTDGIVRGLRHFGLIQEGHHHHHH” as the sequence, how does the “soluble on expression in E. coli” value read?
Its value is “soluble”.

With “MEETVDQAANSRTISLPISRVRLIMKSSPDVSCINQDALFLTTKATELFVQHLALSSYENGPSKDTNTLSYSDLADTVEETETFQFLTDILPKKILARDYLKTLEEMEKEDDNM” as the sequence, how does the “soluble on expression in E. coli” value read?
The value was “not soluble”.

Which “soluble on expression in E. coli” value does the source give for “MDTMRQRILVVDDDASLAEMLTIVLRGEGFDTAVIGDGTQALTAVRELRPDLVLLDLMLPGMNGIDVCRVLRADSGVPIVMLTAKTDTVDVVLGLESGADDYIMKPFKPKELVARVRARLRRNDDEPAEMLSIADVEIDVPAHKVTRNGEQISLTPLEFDLLVALARKPRQVFTRDVLLEQVWGYRHPADTRLVNVHVQRLRAKVEKDPENPTVVLTVRGVGYKAGPPTSGSHHHHHH” here?
The value was “soluble”.

Which “soluble on expression in E. coli” value does the source give for “MNAVHFGAGNIGRGFIGEILAKNGFHITFVDVNETIIQALKERKSYTIELADASHQQINVENVTGLNNMTEPEKVVEAIAEADLVTTAIGPNILPRIAELIAQGIDARAEANCQKPLDIIACENMIGGSTFLAEEVAKYLKNPAYAEQWIGFPDAAVDRIVPLQKHEDPLFVQVEPFCEWVIDDTNRKAKEIQLEGVHYVAD” here?
Its value is “not soluble”.

Which “soluble on expression in E. coli” value does the source give for “DGVRIFNSLAATVYADSTAAHADMQGRRLKAVSDGLDHNGTGLRVIAQTQQDGGTWEQGGVEGKMRGSTQTVGIAAKTGENTTAAATLGMGRSTWSENSANAKTDSISLFAGIRHDAGDIGYLKGLFSYGRYKNSISRSTGADEHAEGSVNGTLMQLGALGGVNVPFAATGDLTVEGGLRYDLLKQDAFAEKGSALGWSGNSLTEGTLVGLAGLKLSQPLSDKAVLFATAGVERDLNGRDYTVTGGFTGATAATGKTGARNMPHTRLVAGLGADVEFGNGWNGLARYSYAGSKQYGNHSGRVGVGYRF” here?
The value was “soluble”.

For “MVADMAGSSEKFKIVLKPVTAEAVPSGDAVKVTTGGVQIDVYPEREAGGPERGLTPLGLLAASLASCEVLMSRLVGRMLGYNGFDVRVAVTADVQVAEGLRSLSIRYVFKGVDIDTANLIVSKVKELCPVYNSLVRNGVSVEENVEVE”, which “soluble on expression in E. coli” value is on record?
The value was “soluble”.

For “MSGRRKGCSAATASSSSSSPPSRLPPLPGHARRPRRKRCLVPEVFCTRDLADLCVRRDYEGLRRYLRRFEGSCVSLGWPSQCIYVVGGEHSPHSLTEIDLEHCQNDFFGEFRALHLIGTVSHATCRYQVFVDAYGAVFAYDAQEDCLYELASDLAGFFAKGMIRCDPVHESICARLQPNVPLVHPDHRAELCRRSRASARGRYLRSLLAFRELLACEDTAARCAYVEAHREAQLTLIWPEKHSLVLRTARDLGLSASMLRRFQRSLYTREPVMPLGEIEGAEDKTFFHRVRILCGDTGTVYAALVGQDKLVRLARDLRGFVRVGLALLIDDFRYESIGPVDRSSLYEANPELRLPFKKRRLEHHHHHH”, which “soluble on expression in E. coli” value is on record?
The value was “not soluble”.

For “MSGAVLPAVLVVPKMESVVVPIAESTVINAKDTTPSTAADNDVSPSPSEPDTDAIKMFVGQIPRQWNETDCRRLFEKYGSVFSCNILRDKSTQASKGCCFVTFYHRKDAIEAQGALHNIKVIEGMHHPVQMKPADTENRNERKLFIGQLSKKHNEENLREIFAKFGHIEDCSVLRDQDGKSRGCAFVTFTNRSCAVVATKEMHHSQTMEGCSAPLVVKFADTQKDKDVKTKSMITGSGAGSPKGGAASLLQNLNPALLQQLGGGQNYQAVASLLSLINGQQGQQQQHQQQQNVLGILGTVLSALGKLTEGGDDASAKSSSEKPRHQALMTSPAPTATSSTSSSASHHHQQHQQQLSQQQQQQQHPQQQGLGNPLLGNPAMAAQNQFDAITMAQIAHQQQMLALQGFAVQQGAPSQQQQGLAGGMAGAKTTSPVAASLANHQQIALTPFAGGAAALDHFQAMQQYALLANLQATGGVGVQATTSAAQMVGNGDVKGPDGANLFIYHLPQDFGDSDLINTFAPFGGILSAKVFIDKVTNLSKCFGFVSYENAQSATNAISAMNGFQIGSKRLKVQLKVDRGNPYNR”, which “soluble on expression in E. coli” value is on record?
The value was “not soluble”.

With “MSAYRHAVERIDSSDLACGVVLHSAPGYPAFPVRLATEIFQRALARLPGDGPVTLWDPCCGSGYLLTVLGLLHRRSLRQVIASDVDPAPLELAAKNLALLSPAGLTARELERREQSERFGKPSYLEAAQAARRLRERLTAEGGALPCAIRTADVFDPRALSAVLAGSAPDVVLTDLPYGERTHWEGQVPAQPVAGLLRSLASALPAHAVIAVTDRSRKIPVAPVKALERLKIGTRSAVLVRAADVLEAGP” as the sequence, how does the “soluble on expression in E. coli” value read?
The value was “soluble”.

For “MKQLAISFCIILPLACFWVLNAEDAKEAPEIREANSTVFRQKRQFGCPSNCYSSCSSSSQCQRYSVASVCVQGCCCPGNNNLDTACSGGPAVAACLGGLCGQGFFCSSNNYCCRCQSGNSTGPCVNQVCPTGFMCNTNNYCCPLGSGGVLGSCVNGVCPTGYTCGAGNLCYLSSGK”, which “soluble on expression in E. coli” value is on record?
The value was “not soluble”.

For “MERSRDFLLQAKRDLEQARLSLREGFFEWAAFAAQQAAEKAVKAVFQRLGAVAWGHSVAGLLEELAQKLPVPEALLDAASELDKAYIPSRYPDALPEGAPFQRYRRGEAERLLGHAEAVYAYCEGVLSQMDEGGAPPPHRGGA”, which “soluble on expression in E. coli” value is on record?
Its value is “soluble”.

For “MSTTAEETPTQALPTQTRTLTGWGRTAPTTAQVLSTPDVEVIARAVAQVAEQNESKPAHLQRGVIARGLGRSYGDPAQNAGGLVIDMNALNRIHRIDRDTHLVEVDAGVNLDQLMKAALPFGLWVPVLPGTRQVTIGGAIGSDIHGKNHHSAGSFGNHVVSLDLLTADGKVRTLTPKGGRNDPKGALFWATIGGMGLTGIILKATIKMTPTETAYFIADGDVTQTLDETIALHSDGSESNYEYSSAWFDAIAAPPKLGRAAISRGSLAKLDQLPAKLQKNPLAFDAPQLLTFPDVFPNGLANKFNFSMIGELWFRKSGTYRDKVQNLTQFYHPLDMFGEWNRAYGSNGFLQYQFVVPTTAVEEFKAIIRDIQKSGHYSFLNVFKLFGEGNQAPLSFPIPGWNICVDFRIKPGLNEFVTELDKRVLKFGGRLYTAKDSRTTAETFHAMYPRIDEWIATRRKYDPTNVFASDMSRRLEL”, which “soluble on expression in E. coli” value is on record?
Its value is “not soluble”.

With “MAHHHHHHMDSTYKEPSSAAVPTSYAVLSLPSKATMRRKGYNPDEVNYNGGLATHPLATWKTFSLPDGCTYKDAVSAVQTANAKPWGPIKIRLNFSDGRYEQFERVAPSVMDSLQSTTTYSPNDAFKAETLSLSTMRRAQQQPRLRPLVDERGHHLSNKPIPRTFAPEELYKNCPPPVLSQPGYDFTPISYNTFLLNPQDPPHGVRNVQSNFMHSSCDYRPRSYLRPEQATGTSHASRHCHCNEVFQVGDHTMDFACEGTTVDHRNRLVKKDYSPVGTLKANSSIVGRRHARKPRFGCTGVADSQTVAAAVAPAADEETA” as the sequence, how does the “soluble on expression in E. coli” value read?
The value was “soluble”.

For “MGSDKIHHHHHHADKHDHKGQTPLVEVDGNFLYKEDLQAVLPAGLSKDDSLLFAEHYVRSWVEDVLLFNQAQSNIPDNGEIDKLVENYRKALIMHTYQQELISQKLSGEIPEQEIADYYEKNKELFKLDRPLMKGLFIKVPLTAPQLGNVRKWYKTETQDAVEHLEKYSLQNAVKYEYFYDKWVRVADVLDMIPLKAESPEAYMDKNRHIELKDTAFYYFLNISDFRVAGEQEPYEFAQPKVKDMLVNIKRVDFMKQVKDDLYERAVKRKKIINY”, which “soluble on expression in E. coli” value is on record?
The value was “not soluble”.

Which “soluble on expression in E. coli” value does the source give for “VQLVRLLEEKIKSLQIEIENLRKELNYYKAEMEKMLSPPLIEAVVLDVLPDGRVLVRSSSGPNLVVNIASHIDQKLIKPGISVALNQRGSTILEVLPQKEDPIVKTMEIIERPN” here?
Its value is “not soluble”.

For “LTEKQKRFADEYIKCGNATEAARLAGYSSKTANRIATENLSKPVIKGYIDKVLSELEEKRVMGYTEAMQLFTEIARGEMEEEVIVSNGDGFSVVTKSADINQRVSALKEIVKRHVAGGRDKLQEELIQAQIDKLRADT”, which “soluble on expression in E. coli” value is on record?
The value was “not soluble”.

Which “soluble on expression in E. coli” value does the source give for “MGSDKIHHHHHHMLIPLYMRYHESLKPDPIIHDASALRLVPQIDYDFSKFDTAIRSSVGSAIRATYLDSLTKAFIQQHQQPIIVMIGCGLDARHERVGDIGKNVPFYELDLPDVIALRKQLMPPAENEILLAASAFDTDWMDELRSTYPQAQFLFVIEGVLMYFNEAQVKKLFEDLAVRFSGGEIAFDIGSTWMSRNSQKHHDVMKHMRAQFDYGCDDDHEMERWADNLHLISAKYMFDFPAWKRIGLLQAAIMWIVPFVRKSYRFLYYRIS” here?
Its value is “not soluble”.

For “TDFIWNLTWMGSTVTNKVLKLTGESPEIIKGVFSIKEGMPINTYYMAKSAGVDPATGAQLYWVYDKDDNGNITNEYISSDYQKAANSKYYSGSRIPDLYGSINTDFSYKNFDLSILGTYSIGGKVYDSLYAGSMEVMYAGNTWNKHALRRWQQPGDITDVPRIQIGGSYTTSDRFLVDASYFAIKNITLGYTIPKQWLKKAGLESVRIFGSVDNLALFSHLDGMDPQYNFKGETDYSYAPNKTYSVGFEINF”, which “soluble on expression in E. coli” value is on record?
The value was “not soluble”.

For “MGSDKIHHHHHHLFLNSLKLKDFRNYKSLQVDFSNSINVLIGDNAQGKTNLLEAIYILSMARSHRDNNDRDLINWSSDFSDITGEVQSKMGKFPLEVRITRTGKKVFVNHLTENRLSDYIGNLHTVLFAPEDLDLVKGSPGVRRKFIDSEFGQMSANYLFNLLQYRSVLKNRNAYLKNIKWIGNNPKIDEDYLKVLNDQLIDFGSEIIFQRFVLVKELEKYSYQIHKAISRNEKLTIKYASFSGIDDQSTKEEISKIFNNQLLKNKTRELFLKSTSVGPHHDDLKFSINGKEVGSFASQGQQRTTALSVRLAEIEMMKYETGEYPILLLDDVLSELDGDRQTQLLNFIQDKVQTFLTTTSLSDVERDLIKDPKIYQVKGGTLVNG”, which “soluble on expression in E. coli” value is on record?
Its value is “not soluble”.

With “GPGSMPAAPLPGEVAKFCSPLYMHKRILRAAAPKPPTVFTAKDNSKTAFHVVTQRPGFATTPYTVSRWYLKEKVHSSNRNRLEGLYECVLCASCTGSCPQYWWNRELFLGPAVLLQSYRWLIEPLDRDFDSRVKMFEHGPLVNFCHNIFNCSITCPKFLNPGMASKEIKRLSSPATLRVGPPLEDAKVASKY” as the sequence, how does the “soluble on expression in E. coli” value read?
Its value is “not soluble”.

With “MGSDKIHHHHHHMQSLPHDVVGYARDYRDGYVSVRHRHPRHQLIYAISGLMMAETDAMSHAIPPGYGLIVPAQQPHEIRMIGAVRLQSLYVRAGLPRADALARCRLVTISPLLAQLIAALCEMANPWPMPPRALHLSQLILIELLAAPVSPLALPYPTDPRLRRVCDGLIATPASPRSLDDWAAEAGMSRRTFSRHFQLETGLSFGKWAQRLRCQAALRGLAKGRPAARVARELGYANAYTMAAMMRRMT” as the sequence, how does the “soluble on expression in E. coli” value read?
Its value is “not soluble”.

With “GSHMASMTGGQQMGRGSMNTEELQVAAFEIILNSGNARSIVHEAFDAMREKNYILAEQKLQEANDELLKAHQAQTDLLQEYASGTEIKIEIIMVHAQDHLMTTMTLREVAIEMLELYKKS” as the sequence, how does the “soluble on expression in E. coli” value read?
Its value is “soluble”.
